Earlier results, collected in patent US6844322B2, “Method for induced lactation” (Monsanto Technology LLC, priority 2000, dated 2005).

Tested on: cows
Conditions: somatotropin included in the induction protocol (Kensinger et al., 1998)

B1: POSILAC® somatotropin: Sustained-release bovine somatotropin, Monsanto (protein, UniProt P01246 27-217, looked up)
Somatotropin: AFPAMSLSGLFANAVLRAQHLHQLAADTFKEFERTYIPEGQRYSIQNTQVAFCFSETIPAPTGKNEAQQKSDLELLRISLLLIQSWLGPLQFLSRVFTNSLVFGTSDRVYEKLKDLEEGILALMRELEDGTPRAGQILKQTYDKFDTNMRSDDALLKNYGLLSCFRKDLHKTETYLRVMKCRRFGEASCAF
modifications: sustained-release formulation
notes: Sustained-release bovine somatotropin, Monsanto
For B1, the “increase in milk yield compared to cows treated with steroids alone” value is listed as 17%.
